In patent publication US20240287154A1, “MC3R AGONIST PEPTIDES” (The Regents of the University of Michigan, priority 2021, published 2024):
Non-standard residues stand in square brackets, D forms with d. d(αMeW) = C[C@@](N)(Cc1c[nH]c2ccccc12)C(=O)O; Phe(4-F) = N[C@@H](Cc1ccc(F)cc1)C(=O)O; Phe(4-I) = N[C@@H](Cc1ccc(I)cc1)C(=O)O; 2Nal = N[C@@H](Cc1ccc2ccccc2c1)C(=O)O; d2Nal = N[C@H](Cc1ccc2ccccc2c1)C(=O)O; dTic = O=C(O)[C@H]1Cc2ccccc2CN1; NMeK = CN[C@@H](CCCCN)C(=O)O; NMeA = CN[C@@H](C)C(=O)O; Nle = CCCC[C@H](N)C(=O)O; dAbu = CC[C@@H](N)C(=O)O; Aib = CC(C)(N)C(=O)O

B1: CTX-1510 (peptide)
peptide: Ac-[Nle][dA]HFR[d(αMeW)]DRFG-OH
SMILES: CCCC[C@H](NC(C)=O)C(=O)N[C@H](C)C(=O)N[C@@H](Cc1c[nH]cn1)C(=O)N[C@@H](Cc1ccccc1)C(=O)N[C@@H](CCCNC(=N)N)C(=O)N[C@](C)(Cc1c[nH]c2ccccc12)C(=O)N[C@@H](CC(=O)O)C(=O)N[C@@H](CCCNC(=N)N)C(=O)N[C@@H](Cc1ccccc1)C(=O)NCC(=O)O
B2: CTX-1506 (peptide)
peptide: Ac-[Nle][dA]P[Phe(4-I)]R[dF]DRFG-OH
SMILES: CCCC[C@H](NC(C)=O)C(=O)N[C@H](C)C(=O)N1CCC[C@H]1C(=O)N[C@@H](Cc1ccc(I)cc1)C(=O)N[C@@H](CCCNC(=N)N)C(=O)N[C@H](Cc1ccccc1)C(=O)N[C@@H](CC(=O)O)C(=O)N[C@@H](CCCNC(=N)N)C(=O)N[C@@H](Cc1ccccc1)C(=O)NCC(=O)O
B3: CTX-1194 (peptide)
peptide: Ac-YVE[dAbu]H[Phe(4-I)]R[dW]DRFG-OH
SMILES: CC[C@@H](NC(=O)[C@H](CCC(=O)O)NC(=O)[C@@H](NC(=O)[C@H](Cc1ccc(O)cc1)NC(C)=O)C(C)C)C(=O)N[C@@H](Cc1c[nH]cn1)C(=O)N[C@@H](Cc1ccc(I)cc1)C(=O)N[C@@H](CCCNC(=N)N)C(=O)N[C@H](Cc1c[nH]c2ccccc12)C(=O)N[C@@H](CC(=O)O)C(=O)N[C@@H](CCCNC(=N)N)C(=O)N[C@@H](Cc1ccccc1)C(=O)NCC(=O)O
B4: CTX-1528 (peptide)
peptide: Ac-[Nle][dA]HFR[dW]ARFG-OH
SMILES: CCCC[C@H](NC(C)=O)C(=O)N[C@H](C)C(=O)N[C@@H](Cc1c[nH]cn1)C(=O)N[C@@H](Cc1ccccc1)C(=O)N[C@@H](CCCNC(=N)N)C(=O)N[C@H](Cc1c[nH]c2ccccc12)C(=O)N[C@@H](C)C(=O)N[C@@H](CCCNC(=N)N)C(=O)N[C@@H](Cc1ccccc1)C(=O)NCC(=O)O
B5: CTX-1191 (peptide)
peptide: Ac-[Nle][dAbu]H[Phe(4-I)]R[dW]DRFG-OH
SMILES: CCCC[C@H](NC(C)=O)C(=O)N[C@H](CC)C(=O)N[C@@H](Cc1c[nH]cn1)C(=O)N[C@@H](Cc1ccc(I)cc1)C(=O)N[C@@H](CCCNC(=N)N)C(=O)N[C@H](Cc1c[nH]c2ccccc12)C(=O)N[C@@H](CC(=O)O)C(=O)N[C@@H](CCCNC(=N)N)C(=O)N[C@@H](Cc1ccccc1)C(=O)NCC(=O)O
B6: CTX-1529 (peptide)
peptide: Ac-[Nle][dA]HFR[dW]FRFG-OH
SMILES: CCCC[C@H](NC(C)=O)C(=O)N[C@H](C)C(=O)N[C@@H](Cc1c[nH]cn1)C(=O)N[C@@H](Cc1ccccc1)C(=O)N[C@@H](CCCNC(=N)N)C(=O)N[C@H](Cc1c[nH]c2ccccc12)C(=O)N[C@@H](Cc1ccccc1)C(=O)N[C@@H](CCCNC(=N)N)C(=O)N[C@@H](Cc1ccccc1)C(=O)NCC(=O)O
B7: CTX-1530 (peptide)
peptide: Ac-[Nle][dA]HFR[dW][dF]RFG-OH
SMILES: CCCC[C@H](NC(C)=O)C(=O)N[C@H](C)C(=O)N[C@@H](Cc1c[nH]cn1)C(=O)N[C@@H](Cc1ccccc1)C(=O)N[C@@H](CCCNC(=N)N)C(=O)N[C@H](Cc1c[nH]c2ccccc12)C(=O)N[C@H](Cc1ccccc1)C(=O)N[C@@H](CCCNC(=N)N)C(=O)N[C@@H](Cc1ccccc1)C(=O)NCC(=O)O
B8: CTX-1129 (peptide)
peptide: H-YV[Nle]AHFR[dW]D-NH2
SMILES: CCCC[C@H](NC(=O)[C@@H](NC(=O)[C@@H](N)Cc1ccc(O)cc1)C(C)C)C(=O)N[C@@H](C)C(=O)N[C@@H](Cc1c[nH]cn1)C(=O)N[C@@H](Cc1ccccc1)C(=O)N[C@@H](CCCNC(=N)N)C(=O)N[C@H](Cc1c[nH]c2ccccc12)C(=O)N[C@@H](CC(=O)O)C(N)=O
B9: CTX-1195 (peptide)
peptide: Ac-YVE[Aib]H[Phe(4-I)]R[dW]DRFG-OH
SMILES: CC(=O)N[C@@H](Cc1ccc(O)cc1)C(=O)N[C@H](C(=O)N[C@@H](CCC(=O)O)C(=O)NC(C)(C)C(=O)N[C@@H](Cc1c[nH]cn1)C(=O)N[C@@H](Cc1ccc(I)cc1)C(=O)N[C@@H](CCCNC(=N)N)C(=O)N[C@H](Cc1c[nH]c2ccccc12)C(=O)N[C@@H](CC(=O)O)C(=O)N[C@@H](CCCNC(=N)N)C(=O)N[C@@H](Cc1ccccc1)C(=O)NCC(=O)O)C(C)C
B10: CTX-1518 (peptide)
peptide: Ac-[Nle][dA]H[Phe(4-F)]R[dW]DRFG-OH
SMILES: CCCC[C@H](NC(C)=O)C(=O)N[C@H](C)C(=O)N[C@@H](Cc1c[nH]cn1)C(=O)N[C@@H](Cc1ccc(F)cc1)C(=O)N[C@@H](CCCNC(=N)N)C(=O)N[C@H](Cc1c[nH]c2ccccc12)C(=O)N[C@@H](CC(=O)O)C(=O)N[C@@H](CCCNC(=N)N)C(=O)N[C@@H](Cc1ccccc1)C(=O)NCC(=O)O
B11: CTX-1501 (peptide)
peptide: Ac-[Nle][dA]H[Phe(4-I)][dR]WDRFG-OH
SMILES: CCCC[C@H](NC(C)=O)C(=O)N[C@H](C)C(=O)N[C@@H](Cc1c[nH]cn1)C(=O)N[C@@H](Cc1ccc(I)cc1)C(=O)N[C@H](CCCNC(=N)N)C(=O)N[C@@H](Cc1c[nH]c2ccccc12)C(=O)N[C@@H](CC(=O)O)C(=O)N[C@@H](CCCNC(=N)N)C(=O)N[C@@H](Cc1ccccc1)C(=O)NCC(=O)O
B12: CTX-1523 (peptide)
peptide: Ac-[Nle][dA]HFK[dW]DRFG-OH
SMILES: CCCC[C@H](NC(C)=O)C(=O)N[C@H](C)C(=O)N[C@@H](Cc1c[nH]cn1)C(=O)N[C@@H](Cc1ccccc1)C(=O)N[C@@H](CCCCN)C(=O)N[C@H](Cc1c[nH]c2ccccc12)C(=O)N[C@@H](CC(=O)O)C(=O)N[C@@H](CCCNC(=N)N)C(=O)N[C@@H](Cc1ccccc1)C(=O)NCC(=O)O
B13: CTX-1502 (peptide)
peptide: Ac-[Nle][dA]H[Phe(4-I)]R[d2Nal]DRFG-OH
SMILES: CCCC[C@H](NC(C)=O)C(=O)N[C@H](C)C(=O)N[C@@H](Cc1c[nH]cn1)C(=O)N[C@@H](Cc1ccc(I)cc1)C(=O)N[C@@H](CCCNC(=N)N)C(=O)N[C@H](Cc1ccc2ccccc2c1)C(=O)N[C@@H](CC(=O)O)C(=O)N[C@@H](CCCNC(=N)N)C(=O)N[C@@H](Cc1ccccc1)C(=O)NCC(=O)O
B14: CTX-1503 (peptide)
peptide: Ac-[Nle][dA]H[Phe(4-I)]R[dF]DRFG-OH
SMILES: CCCC[C@H](NC(C)=O)C(=O)N[C@H](C)C(=O)N[C@@H](Cc1c[nH]cn1)C(=O)N[C@@H](Cc1ccc(I)cc1)C(=O)N[C@@H](CCCNC(=N)N)C(=O)N[C@H](Cc1ccccc1)C(=O)N[C@@H](CC(=O)O)C(=O)N[C@@H](CCCNC(=N)N)C(=O)N[C@@H](Cc1ccccc1)C(=O)NCC(=O)O
B15: CTX-1189 (peptide)
peptide: Ac-[Nle][dA][NMeK]FR[dW]DRFG-OH
SMILES: CCCC[C@H](NC(C)=O)C(=O)N[C@H](C)C(=O)N(C)[C@@H](CCCCN)C(=O)N[C@@H](Cc1ccccc1)C(=O)N[C@@H](CCCNC(=N)N)C(=O)N[C@H](Cc1c[nH]c2ccccc12)C(=O)N[C@@H](CC(=O)O)C(=O)N[C@@H](CCCNC(=N)N)C(=O)N[C@@H](Cc1ccccc1)C(=O)NCC(=O)O
B16: CTX-1512 (peptide)
peptide: Ac-[Nle][dA]H[2Nal]R[dW]DRFG-OH
SMILES: CCCC[C@H](NC(C)=O)C(=O)N[C@H](C)C(=O)N[C@@H](Cc1c[nH]cn1)C(=O)N[C@@H](Cc1ccc2ccccc2c1)C(=O)N[C@@H](CCCNC(=N)N)C(=O)N[C@H](Cc1c[nH]c2ccccc12)C(=O)N[C@@H](CC(=O)O)C(=O)N[C@@H](CCCNC(=N)N)C(=O)N[C@@H](Cc1ccccc1)C(=O)NCC(=O)O
B17: CTX-1190 (peptide)
peptide: Ac-[Nle][dA][NMeA]FR[dW]DRFG-OH
SMILES: CCCC[C@H](NC(C)=O)C(=O)N[C@H](C)C(=O)N(C)[C@@H](C)C(=O)N[C@@H](Cc1ccccc1)C(=O)N[C@@H](CCCNC(=N)N)C(=O)N[C@H](Cc1c[nH]c2ccccc12)C(=O)N[C@@H](CC(=O)O)C(=O)N[C@@H](CCCNC(=N)N)C(=O)N[C@@H](Cc1ccccc1)C(=O)NCC(=O)O
B18: CTX-1197 (peptide)
peptide: Ac-[Nle][dA]R[Phe(4-I)]R[dW]DRFG-OH
SMILES: CCCC[C@H](NC(C)=O)C(=O)N[C@H](C)C(=O)N[C@@H](CCCNC(=N)N)C(=O)N[C@@H](Cc1ccc(I)cc1)C(=O)N[C@@H](CCCNC(=N)N)C(=O)N[C@H](Cc1c[nH]c2ccccc12)C(=O)N[C@@H](CC(=O)O)C(=O)N[C@@H](CCCNC(=N)N)C(=O)N[C@@H](Cc1ccccc1)C(=O)NCC(=O)O

These binders were tested against human MC3R (human, UniProt P41968 1-323) (assay: cell-based or functional assay).
Chain of human MC3R (P41968 whole entry): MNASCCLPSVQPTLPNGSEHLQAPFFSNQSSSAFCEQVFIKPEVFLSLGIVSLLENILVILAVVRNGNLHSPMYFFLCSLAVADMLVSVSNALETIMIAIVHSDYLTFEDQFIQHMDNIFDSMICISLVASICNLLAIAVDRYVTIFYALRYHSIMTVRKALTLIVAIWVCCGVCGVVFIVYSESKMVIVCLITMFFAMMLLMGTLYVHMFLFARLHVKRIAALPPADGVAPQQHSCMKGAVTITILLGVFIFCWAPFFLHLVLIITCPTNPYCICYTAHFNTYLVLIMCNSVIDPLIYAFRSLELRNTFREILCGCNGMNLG

MC3R cAMP (EC50) [nM] | MC3R selectivity (relative to MC4R) | Binder
181 | 23 | B1
 | 1 | B2
34.3 | 49 | B3
1.9 | 182 | B4
3.9 | 470 | B5
1 | 667 | YVXXHFRWDRFG (Nle at 3; D-Abu at 4; D-Trp at 8) [CTX-1135]
4.8 | 82 | B6
289 |  | B7
1.2 | 7.5 | B8
184 | 51 | B9
1.9 | 1560 | B10
2800 | 0.01 | B11
41.7 | 5320 | B12
6.7 | 184 | B13
124 | 214 | B14
3540 | 1 | B15
13.1 | 804 | B16
3920 |  | B17
 | 1 | Ac-[Nle][dA]H[Phe(4-I)]R[dTic]DRFG-OH [CTX-1504]
13.5 | 250 | B18
